The target in this experiment is TNFα (UniProt P06804).
UniProt P06804, sequence (P06804 80-235): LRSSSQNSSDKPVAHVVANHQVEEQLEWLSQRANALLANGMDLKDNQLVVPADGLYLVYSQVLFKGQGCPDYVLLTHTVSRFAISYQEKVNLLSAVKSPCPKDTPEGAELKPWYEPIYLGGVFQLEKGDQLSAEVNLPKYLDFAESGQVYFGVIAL

B1: muTNFR-Fc (Fc fusion)
chain: VPAQVVLTPYKPEPGYECQISQEYYDRKAQMCCAKCPPGQYVKHFCNKTSDTVCADCEASMYTQVWNQFRTCLSCSSSCTTDQVEIRACTKQQNRVCACEAGRYCALKTHSGSCRQCMRLSKCGPGFGVASSRAPNGNVLCKACAPGTFSDTTSSTDVCRPHRICSILAIPGNASTDAVCAPESPTLSAIPRTLYVSQPEPTRSQPLDQEPGPSQTPSILTSLGSTPIIEQSTKGG
For B1, the inhibition of TNF-mediated killing of lung murine fibroblasts (TNFα trimer 5 pM, actinomycin D 2 μg/ml, muTNFR-Fc 50 nM to 0.1 pM, 24 h); half-maximal inhibitory concentration turned out to be 0.1 nM.
